Measurements taken from patent CN107236025A, “与cd56分子特异性结合的多肽及其应用” (GUANGZHOU YIDAI PHARMACEUTICAL TECHNOLOGY Co Ltd, priority 2017, dated 2017).

B1: SSVYCKQTNKKKRKERKRDTGMKGDIIGTGVNDLAPLRGPIKASTMVAVAQDMAGTGADFLFL (peptide)
chain: SSVYCKQTNKKKRKERKRDTGMKGDIIGTGVNDLAPLRGPIKASTMVAVAQDMAGTGADFLFL

How the values were obtained:
U2 OS细胞 = assay: Cytotoxicity test (CCK8) on U2 OS cells; assay type: cell-based; settings: 0.1-100 μg/ml peptide, 72 h; versus medium without peptide; Fig. 5
[1] = In vivo metabolism and distribution in mouse by fluorescence imaging; design: species or system 小鼠
[2] = female mouse, tail vein, 400 ul of 1 mg/ml, Fig. 7

Molecule	Toxicity to U2 OS cells (cell viability, CCK8) (U2 OS细胞)	Distribution of peptide fluorescence after 1 h [1, 2]	Distribution of peptide fluorescence after 3.5 h [1, 2]	Route of metabolism ([1]; female mouse, tail vein, concluded from fluorescence imaging)	Peptide residue in liver, spleen, lung and kidney (frozen sections, confocal) ([1]; mouse, after 3.5 h of imaging, Fig. 8)
SSVLTKWYLVCWSLGESISNERRKNFHLVGHWGCLRKLTFVVE [7号多肽]	没有毒性作用				
B1	没有毒性作用	逐渐富集到小鼠肝、肾和肠	只留存于肝脏和肠腔	主要经过肝脏代谢	各个脏器均有少量的多肽残留
